Measurements reported in patent publication US8357518B2, “Thermostable enzymes for the hydrolysis of mannan-containing polysaccharides” (The Board of Trustees of the University of Illinois, priority 2010, dated 2013).

Key:
Assay in all cases: Catalytic efficiency with oligosaccharides, HPAEC (Man5A-TM2)
Assay type in all cases: biochemical, Caldanaerobius polysaccharolyticus
Details in all cases: other: Man5A-TM2 0.3 μM, oligosaccharide 30 μM, citrate buffer 50 mM, pH 5.5, 5 min, triplicate
[1] = substrate: OC[C@H]1O[C@@H](O[C@H]2[C@H](O)[C@@H](O)[C@H](O[C@H]3[C@H](O)[C@@H](O)[C@H](O[C@H]4[C@H](O)[C@@H](O)[C@H](O[C@H]5[C@H](O)[C@@H](O)C(O)O[C@@H]5CO)O[C@@H]4CO)O[C@@H]3CO)O[C@@H]2CO)[C@H](O)[C@@H](O)[C@@H]1O
Procedure: (§1) Cloning, expression, and purification of Man5A-TM1, Man5A-TM2 and Man5B. C. polysaccharolyticus was cultured in TYG medium and DNA was isolated from mid-log cultures and purified using the Qiagen DNeasy Blood and Tissue kit with an integrated RNase treatment step. The genome of C. polysaccharolyticus was partially sequenced by the W. M. Keck Biotechnology Center at the University of Illinois at Urbana-Champaign. A Newbler assembly was generated which is comprised of ½ plate of FLX PE 454 data and ½ plate of 8 kb paired-end GSFLX Titanium data using a Genome Sequencer instrument from 454 Life Sciences (Branford, Conn.). The partial genome sequence was uploaded onto the Rapid Annotation using Subsystem Technology (RAST) server (Aziz et al., BMC Genomics, 9:75, 2008). Auto-annotation of the C. polysaccharolyticus partial genome sequence identified ORF0760 as a gene predicted to encode a bifunctional β-D-mannanase/endoglucanase (Man5B). Man5A was previously identified in a recombinant phage library of C. polysaccharolyticus genomic DNA, which was screened for endoglucanase activity (Cann et al., J Bacteriol, 181:1643, 1999) and the full sequence of this gene was also identified in the partial genome sequence for C. polysaccharolyticus.
(§2) The DNA sequence corresponding to man5B was amplified by the PicoMaxx high fidelity PCR kit using genomic DNA as the template with the primer set Man5B-Forward and Man5B-Reverse (Table 1-1). The primers were engineered to incorporate a 5′-[…] (SEQ ID NO: 54) extension in Man5B-F and a 5′-[…] (SEQ ID NO: 55) extension in Man5B-R, which facilitated subsequent directional cloning. The resultant man5B amplicon was then digested with T4 DNA polymerase exonuclease activity, annealed with a similarly digested pET-46b vector and introduced into E. coli JM109 by electroporation. Man5A-TM1 was amplified using genomic DNA as template with primers Man5A-TM1-F and Man5A-TM1-R (Table 1-1). The primer sets for Man5A-TM1 and Man5A-TM2 were designed to include 5′-NdeI and 3′-XhoI restriction sites for subsequent directional cloning. The resulting amplicons were then cloned into the pGEM-T vector via TA-cloning and subcloned in-frame with the hexahistidine (His6) encoding sequence of a modified pET-28a expression vector via its NdeI-XhoI polylinker site. The truncated protein Man5A-TM2 originally named ManA-SLH-CBD was cloned as described in a previous study (Cann et al., J Bacteriol, 181:1643, 1999). Expression of each of the resulting gene constructs yielded fusion proteins containing an N-terminal polyhistidine tag sequence to facilitate affinity purification via metal chelate chromatography. The resulting plasmid constructs pET46-Man5B, pET28a-Man5A-TM1, and pET-28a-Man5A-TM2 were sequenced to confirm the integrity of the cloned genes (W. M. Keck Center for Comparative and Functional Genomics at the University of Illinois at Urbana-Champaign).
(§3) The plasmid constructs were then introduced into E. coli BL-21 CodonPlus (DE3) RIL competent cells by heat shock, and grown overnight in lysogeny broth (LB) agar medium supplemented with ampicillin (100 μg/mL) and chloramphenicol (50 μg/mL) at 37° C. After 12 h, single colonies were selected and used to inoculate fresh LB (10 mL) supplemented with the antibiotics above at the same concentrations, followed by culturing with aeration for 8 h at 37° C. The pre-cultures were then inoculated into fresh LB (1 L) supplemented with ampicillin and chloramphenicol and the cultures were incubated at 37° C. with vigorous aeration (225 rpm/min). The cultures were grown to an optical density of 0.3 at 600 nm, and the temperature was shifted to 16° C. and gene expression was induced by the addition of 0.1 mM isopropyl β-D-thiogalactopyranoside (IPTG). […]

[2] = substrate: OC[C@H]1O[C@@H](O[C@H]2[C@H](O)[C@H](O)[C@H](O[C@H]3[C@H](O)[C@H](O)[C@H](O[C@H]4[C@H](O)[C@H](O)[C@H](O[C@H]5[C@H](O)[C@H](O)C(O)O[C@@H]5CO)O[C@@H]4CO)O[C@@H]3CO)O[C@@H]2CO)[C@@H](O)[C@@H](O)[C@@H]1O
Procedure: as §1, §2, §3

[3] = substrate: OC[C@H]1O[C@@H](O[C@H]2[C@H](O)[C@H](O)[C@H](O[C@H]3[C@H](O)[C@H](O)[C@H](O[C@H]4[C@H](O)[C@H](O)[C@H](O[C@H]5[C@H](O)[C@H](O)[C@H](O[C@H]6[C@H](O)[C@H](O)C(O)O[C@@H]6CO)O[C@@H]5CO)O[C@@H]4CO)O[C@@H]3CO)O[C@@H]2CO)[C@@H](O)[C@@H](O)[C@@H]1O
Procedure: as §1, §2, §3

[4] = substrate: OC[C@H]1O[C@@H](O[C@H]2[C@H](O)[C@H](O)[C@H](O[C@H]3[C@H](O)[C@H](O)[C@H](O[C@H]4[C@H](O)[C@H](O)C(O)O[C@@H]4CO)O[C@@H]3CO)O[C@@H]2CO)[C@@H](O)[C@@H](O)[C@@H]1O
Procedure: as §1, §2, §3

[5] = substrate: OC[C@H]1O[C@@H](O[C@H]2[C@H](O)[C@@H](O)[C@H](O[C@H]3[C@H](O)[C@@H](O)[C@H](O[C@H]4[C@H](O)[C@@H](O)[C@H](O[C@H]5[C@H](O)[C@@H](O)[C@H](O[C@H]6[C@H](O)[C@@H](O)C(O)O[C@@H]6CO)O[C@@H]5CO)O[C@@H]4CO)O[C@@H]3CO)O[C@@H]2CO)[C@H](O)[C@@H](O)[C@@H]1O
Procedure: as §1, §2, §3

[6] = substrate: OC[C@H]1O[C@@H](O[C@H]2[C@H](O)[C@@H](O)[C@H](O[C@H]3[C@H](O)[C@@H](O)[C@H](O[C@H]4[C@H](O)[C@@H](O)C(O)O[C@@H]4CO)O[C@@H]3CO)O[C@@H]2CO)[C@H](O)[C@@H](O)[C@@H]1O
Procedure: as §1, §2, §3

B1: Caldanaerobius polysaccharolyticus endo-β-mannanase Man5A truncation mutant Man5A-TM2, SEQ ID NO: 29 (Caldanaerobius polysaccharolyticus) (protein)
chain: AGTSGDGRFHVVGNKIVDPDGKDFIIKGVNIQGYRSWEKRSVLQDVHLIADVWKFNTVRLNCFIGQNNWGEGTGANNDIDAIIKAFTAKKVVVEIDLHDTTGYPPLSNPPPAPGQPSLDQAIAWFKELAAKYKDNPYVWFNTMNEPGSSTAPLDPQWKVANEEIIKAIRSTGADNIIVVDGWSYANEGIEQNTPTVDEKRSAVLTYGQDLLNADSAKNTIFAFHNYNEGDIQKKVEDYIDRANAKGLYVFMEEYGKDYSDAAKEGVKSGLQAVMNKGAGRIYWNWDGYDLYDLTSGTGRGSGWEINKTDGSKPTNLSWVGDKIWDDNHGITPTFDDQNPKVDLALERLIANNNGFKAGDKVQFTTFLRNSGDLPIGKDSKVVVKFYVDGVQLGDPVEISGGIAVGQRIPVTSPELTVSKTDFTVKAVIDSSSTYADGAEDAVIENNWIEAAFNSTAPSSGYELVVTGIKITPDTVKEGDYVQAQVTVANQGPEATPVTNIIGWFYVNGYYYTLDDAAKSCAEQDNVTLKPGESITLSTKVKYRAAAPFNFSFVLENLYADDQNQSNNSITVNVPVK
kcat/Km [1]: 2200 ± 300 M⁻¹ s⁻¹
kcat/Km [2]: 12000 ± 2000 M⁻¹ s⁻¹
kcat/Km [3]: 28000 ± 8000 M⁻¹ s⁻¹
kcat/Km [4]: 11000 ± 1000 M⁻¹ s⁻¹
kcat/Km [5]: 25000 ± 8000 M⁻¹ s⁻¹
kcat/Km [6]: 1800 ± 500 M⁻¹ s⁻¹
